Measured values from patent US20140037624A1.

Tests used:
[1] = target: T1, human FGFR4-Fc chimeric protein (human) (UniProt P22455); test: solid phase binding assay, LD1 on immobilized hFGFR4-Fc, OD 450 nm
T1 sequence: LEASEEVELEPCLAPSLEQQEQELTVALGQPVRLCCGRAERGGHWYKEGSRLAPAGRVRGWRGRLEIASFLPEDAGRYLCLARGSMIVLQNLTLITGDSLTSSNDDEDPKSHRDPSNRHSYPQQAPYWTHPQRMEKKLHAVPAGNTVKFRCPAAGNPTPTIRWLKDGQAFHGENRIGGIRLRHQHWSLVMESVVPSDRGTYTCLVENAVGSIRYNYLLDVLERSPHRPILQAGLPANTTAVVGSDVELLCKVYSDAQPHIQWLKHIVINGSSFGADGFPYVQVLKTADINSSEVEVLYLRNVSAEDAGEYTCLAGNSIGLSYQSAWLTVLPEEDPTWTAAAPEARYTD

[2] = target: human FGFR4 at the cell surface (stably transfected HEK293 and L6 cells; endogenous on human liver cancer cell lines) (human) (UniProt P22455); test: flow cytometry on HEK293 cells stably transfected with hFGFR4, RFU
[3] = target: T2, mouse FGFR4-Fc chimeric protein (mouse) (UniProt Q03142); test: solid phase binding assay, LD1 on immobilized mFGFR4-Fc, OD 450 nm
T2 sequence (looked up): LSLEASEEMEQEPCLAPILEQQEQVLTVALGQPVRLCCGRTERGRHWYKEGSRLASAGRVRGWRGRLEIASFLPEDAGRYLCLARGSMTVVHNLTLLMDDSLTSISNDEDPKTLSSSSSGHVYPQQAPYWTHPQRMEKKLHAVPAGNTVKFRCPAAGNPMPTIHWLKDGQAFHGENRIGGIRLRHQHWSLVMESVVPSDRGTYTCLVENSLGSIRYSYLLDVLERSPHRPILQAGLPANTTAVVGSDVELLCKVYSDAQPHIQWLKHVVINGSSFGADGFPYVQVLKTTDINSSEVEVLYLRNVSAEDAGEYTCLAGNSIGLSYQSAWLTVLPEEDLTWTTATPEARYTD

[4] = target: human FGFR4 at the cell surface (stably transfected HEK293 and L6 cells; endogenous on human liver cancer cell lines) (human) (UniProt P22455); test: cell-based or functional assay

B1: chimeric LD1 (murine LD1 variable domains with human kappa and human IgG1 constant domains) (antibody, V domains shown)
VH: EVQLQQPGAVLVRPGTSVKLSCKASGYTFTNHWMNWVKQRPGQGLEWIGMIHPSDSETTLDQKFKDKATLTVDKSSSTAYMQLNRPTSEDSAVYYCTRGDISLFDYWGQGTTVTVSS
VL: DIQMTQTTSSLSASLGDRVTITCRTSQDISNFLNWYQQKPDGTFKILISYTSRLHSGVPSRFSGSGSGTDYSLTISTLEQEDFATYFCQQGNALPYTFGGGTKLEIE
[1]
  EC50 (read off the curve): 0.04 µg/mL
[2]
  EC50 (read off the curve): 0.5 µg/mL
[3]
  EC50 (read off the curve): 0.04 µg/mL
[4]
  CYP7α1 expression in HEP3B cells with added FGF19: 67%
  CYP7α1 expression in HEP3B cells without added FGF19: 2 fold
  CYP7α1 expression in HUH7 cells in the absence of FGF19: 3.5 fold
  CYP7α1 expression in HUH7 cells in the presence of FGF19: 2.9 fold
  decrease of basal c-Fos expression in JHH5, JHH7 and HUH7 cell lines: 50%
  decrease of basal c-Fos expression in the PLC/PRF/5 cell line: 75%
  maximum inhibition of colony formation, HUH7 cells: 50%
  maximum inhibition of colony formation, JHH5 cells: 26%
  maximum inhibition of colony formation, PLC/PRF/5 cells: 82%
